US20230374148A1, “BINDING MOLECULES THAT MULTIMERISE CD45” (UCB BIOPHARMA SRL, priority 2020, published 2023)

Legend:
[1] = target: T1, human CD45 on cells (PBMC, whole blood cells, macrophages, leukaemia and lymphoma cell lines) (human, UniProt P08575 26-1306); test: cell-based or functional assay
T1 sequence: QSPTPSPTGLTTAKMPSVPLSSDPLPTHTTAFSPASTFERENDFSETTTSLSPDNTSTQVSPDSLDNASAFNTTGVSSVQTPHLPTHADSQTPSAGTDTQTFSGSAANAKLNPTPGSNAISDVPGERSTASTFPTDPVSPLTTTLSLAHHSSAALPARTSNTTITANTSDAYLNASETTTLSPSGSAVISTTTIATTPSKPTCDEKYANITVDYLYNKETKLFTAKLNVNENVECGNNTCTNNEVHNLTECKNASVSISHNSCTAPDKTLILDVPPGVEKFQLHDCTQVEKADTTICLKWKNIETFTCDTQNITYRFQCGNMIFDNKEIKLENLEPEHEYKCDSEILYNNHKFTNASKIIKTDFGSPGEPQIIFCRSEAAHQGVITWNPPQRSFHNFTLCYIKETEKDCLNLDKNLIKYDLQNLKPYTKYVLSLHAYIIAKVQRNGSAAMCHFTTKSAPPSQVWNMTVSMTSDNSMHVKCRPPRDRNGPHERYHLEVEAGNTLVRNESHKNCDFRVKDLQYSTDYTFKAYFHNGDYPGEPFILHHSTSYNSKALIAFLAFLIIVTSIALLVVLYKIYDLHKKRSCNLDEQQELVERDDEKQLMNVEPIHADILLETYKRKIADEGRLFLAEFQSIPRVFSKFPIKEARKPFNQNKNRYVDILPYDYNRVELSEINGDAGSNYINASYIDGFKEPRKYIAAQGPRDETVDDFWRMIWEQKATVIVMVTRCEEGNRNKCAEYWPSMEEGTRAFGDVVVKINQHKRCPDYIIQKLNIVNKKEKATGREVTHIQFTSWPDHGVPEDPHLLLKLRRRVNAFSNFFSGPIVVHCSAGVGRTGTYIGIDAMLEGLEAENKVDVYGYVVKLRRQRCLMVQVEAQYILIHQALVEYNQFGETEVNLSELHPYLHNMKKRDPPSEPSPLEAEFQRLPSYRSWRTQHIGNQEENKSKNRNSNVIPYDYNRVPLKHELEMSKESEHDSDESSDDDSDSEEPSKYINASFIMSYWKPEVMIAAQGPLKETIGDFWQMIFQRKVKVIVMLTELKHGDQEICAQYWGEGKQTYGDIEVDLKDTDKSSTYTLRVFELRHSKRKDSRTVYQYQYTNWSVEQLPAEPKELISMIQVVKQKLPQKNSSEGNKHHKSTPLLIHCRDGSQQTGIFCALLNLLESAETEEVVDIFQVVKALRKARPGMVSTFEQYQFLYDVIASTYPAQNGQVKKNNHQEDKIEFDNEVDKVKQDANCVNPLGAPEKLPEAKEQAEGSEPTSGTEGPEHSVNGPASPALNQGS

[2] = target: T1, human CD45 on cells (PBMC, whole blood …); test: cell-based or functional assay; remark: listed apart in the source
[3] = target: T2, CD45 domains 1-4 of the extracellular domain (UniProtKB P08575, residues 225-573) with C-terminal TEV cleavage site and 10-His tag (human); test: sedimentation velocity analytical ultracentrifugation, molar 1:1 mixture of CD45 ECD and BYbe
[4] = target: T1, human CD45 on cells (PBMC, whole blood …); test: cell-based or functional assay; remark: listed apart in the source
[5] = target: T2, CD45 domains 1-4 of the extracellular domain; test: mass of the peaks seen in the mixture of CD45 ECD and 4133-6294 BYbe in solution; theoretical mass 276 kDa
[6] = target: T2, CD45 domains 1-4 of the extracellular domain; test: mass of the peaks seen in the mixture of CD45 ECD and 4133-6294 BYbe in solution; theoretical mass 552 kDa
[7] = target: T2, CD45 domains 1-4 of the extracellular domain; test: mass of the peaks seen in the mixture of CD45 ECD and 4133-6294 BYbe in solution; theoretical mass 138 kDa
[8] = target: T1, human CD45 on cells (PBMC, whole blood …); test: cell-based or functional assay; remark: listed apart in the source
[9] = target: T2, CD45 domains 1-4 of the extracellular domain; test: mass photometry of the mixture of CD45 ECD and 4133-6294 BYbe, not pre-incubated [C]
[10] = target: T2, CD45 domains 1-4 of the extracellular domain; test: sedimentation peaks of the mixture of CD45 ECD and 4133-6294 BYbe; stoichiometry assigned from modelled S values
[11] = target: T2, CD45 domains 1-4 of the extracellular domain; test: mass of the peaks seen in the mixture of CD45 ECD and 4133-6294 BYbe in solution; theoretical mass 414 kDa

B1: 4133-6294 BYbe (bispecific antibody)
heavy: QEQLVESGGGLVQPEGSLTLTCTASGFSFSGNYYMCWVRQAPGKGLEWIGCLYTGSSGSTYYASWAKGRFTISKTSSTTVTLQMTSLTAADTATYFCARDLGYEIDGYGGLWGQGTLVTVSSGQPKAPSVFPLAPCCGDTPSSTVTLGCLVKGYLPEPVTVTWNSGTLTNGVRTFPSVRQSSGLYSLSSVVSVTSSSQPVTCNVAHPATNTKVDKTVAPSTCSKPGGGGSGGGGSEVQLVESGAELARPGASVKMSCKASGYTFTSYTMHWVKQRPGQCLEWIGYINPSSGYTEYNQKFKDKTTLTADKSSSTAYLQLSSLTSEDSAVYYCARVGDGFYPSWLAYWGQGTLVTVSSGGGGSGGGGSGGGGSGGGGSDIQMTQSPKFLLVSAGDRVTITCKASQSVRNDVAWYQQKPGQSPKLLIFYASKRYTGVPDRFTGSGYGTDFTFTISTVQAEDLAVYFCQQDYSSPTTFGCGTKLEIK
light: AQVLTQTPSPVSAVVGGTVSISCQASQSVYNNNNLSWYQQKPGQPPKLLIYDASKLASGVPSRFKGSGSGTQFTLTISGVQCDDAATYYCLGGYYSSGWYFAFGGGTKVVVKRTPVAPTVLIFPPAADQVATGTVTIVCVANKYFPDVTVTWEVDGTTQTTGIENSKTPQNSADCTYNLSSTLTLTSTQYNSHKEYTCKVTQGTTSVVQSFNRGDC
[1]
  EC50 of reduction, CD4+ cells in whole blood, 5 h, Donor 1: 0.25 nM
  EC50 of reduction, CD4+ cells in whole blood, 5 h, Donor 2: 0.33 nM
  EC50 of reduction, total lymphocytes in whole blood, 5 h, Donor 1: 0.37 nM
  EC50 of reduction, total lymphocytes in whole blood, 5 h, Donor 2: 5.99 nM
[2]
  EC50 of % cell reduction, CCRF-SB cells, 21 h: 0.308 nM
  EC50 of % cell reduction, Dakiki cells, 21 h: 0.309 nM
  EC50 of % cell reduction, Jurkat cells, 21 h: 0.117 nM
  EC50 of % cell reduction, MC116 cells, 21 h: 0.005 nM
  EC50 of % cell reduction, NU-DUL-1 cells, 21 h: 0.497 nM
  EC50 of % cell reduction, OCI-Ly3 cells, 21 h: 0.349 nM
  EC50 of % cell reduction, Raji cells, 21 h: 0.397 nM
  EC50 of % cell reduction, Ramos cells, 21 h: 0.14 nM
  EC50 of % cell reduction, SU-DHL-4 cells, 21 h: 0.141 nM
  EC50 of % cell reduction, SU-DHL-5 cells, 21 h: 0.043 nM
  EC50 of % cell reduction, SU-DHL-8 cells, 21 h: 1.46 nM
  EC50 of % cell reduction, THP-1 cells, 21 h: 1.54 nM
[3]
  Percentage of area under the curve (CD45 1:1 BYbe complex): 12%
  Percentage of area under the curve (CD45 2:2 BYbe complex): 37.7%
  Percentage of area under the curve (CD45 3:3 BYbe complex): 35.7%
  Percentage of area under the curve (CD45 4:4 BYbe complex): 3.46%
  Percentage of area under the curve (unbound CD45 in the 1:1 mixture): 9.21%
[4]
  EC50 of reduction of lymphocytes in PBMC, 24 h (UCB Cone-802): 0.15 nM
  EC50 of reduction of lymphocytes in PBMC, 24 h (UCB Cone-811): 0.1 nM
[5]
  observed mass of the complex 2× (CD45 + BYbe): 274 kDa
[6]
  observed mass of the complex 4× (CD45 + BYbe): 555 kDa
[7]
  observed mass of the complex 1× (CD45 + BYbe): 136 kDa
[8]
  EC50 of subset cell reduction, B cells in PBMC, 24 h: 1.5 nM
  EC50 of subset cell reduction, CD4+ Memory cells in PBMC, 24 h: 0.222 nM
  EC50 of subset cell reduction, CD4+ Naive cells in PBMC, 24 h: 0.524 nM
  EC50 of subset cell reduction, CD4+ cells in PBMC, 24 h: 0.302 nM
  EC50 of subset cell reduction, CD8+ cells in PBMC, 24 h: 0.187 nM
[9]
  counts in the peak at 75 kDa (arrow from the BYbe schematic; unbound BYbe according to the text): 3830 counts
  counts in the peak at 136 kDa, complex marked (1x): 3060 counts
  counts in the peak at 274 kDa, complex marked (2x): 3510 counts
  counts in the peak at 415 kDa, complex marked (3x): 464 counts
  counts in the peak at 555 kDa, complex marked (4x): 137 counts
  percent of counts in the peak at 75 kDa (arrow from the BYbe schematic; unbound BYbe according to the text): 31%
  percent of counts in the peak at 136 kDa, complex marked (1x): 24%
  percent of counts in the peak at 274 kDa, complex marked (2x): 28%
  percent of counts in the peak at 415 kDa, complex marked (3x): 4%
  percent of counts in the peak at 555 kDa, complex marked (4x): 1%
[10]
  experimental S value of the complex CD45 1:1 BYbe: 6.9 S
  experimental S value of the complex CD45 2:1 BYbe: 7.15 S
  experimental S value of the complex CD45 2:2 BYbe: 8.78 S
  experimental S value of the complex CD45 3:3 BYbe: 10 S
  experimental S value of the complex CD45 4:3 BYbe: 11.1 S
  experimental S value of the complex CD45 4:4 BYbe: 13.3 S
[11]
  observed mass of the complex 3× (CD45 + BYbe): 415 kDa
